According to the nanobody polyreactivity screen of Harvey et al. (2022):

Experiment: yeast display, Sf9 membrane polyspecificity reagent, FACS + sequencing; frameworks hold sequencing errors
Procedure, shortened: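 In a synthetic yeast display library (Saccharomyces cerevisiae BJ5465), nanobody expression was induced with galactose for 36–48 hours. FACS gates were set low and high (top ~1%) using anti-HA fluorescence for expression and streptavidin fluorescence for binding of the Sf9 membrane reagent. Each polyreactivity label is drawn from the gate of origin.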

Sequence | polyreactivity (PSR sort gate)
QVQRVESGGGLVQAGCSLRLSCAASGLIFTRYDMGWNRPAPGKERELVAAISGDGGSTYYAESVKGRFTISRDNAKNTVYLQMNSLKPEDTAVYYCAADSARTPWDDYWGQGTQVTVSS | high polyreactivity
QVQRVESGGGLVQAGGRLRLSCAASGFIFSYNAMGWYRQAPGKERELVAAISWSGVSTYYADSVMGRFTISRDNAKNTVYLQMNSLKPEDTAVYYCSAVRLRYATPVQFNPYIFGYWGQGTQVTVSS | high polyreactivity
QVQRVESGGGLVQAGGSHRLSCAASGRIFSLNAMGWYRQAPGKERELVAAITTTGGTTYYADSVKGRFTISRDKAKNTVYLQMNSLKPEDTAVYYCAADYAPYNYLAYYFSGWLEYWGQGTQVTVSS | low polyreactivity
QVQRVESGGGLVQAGGSLRLRCAASGFTLGHYAMGWYRQAPGTERELVAVITSGSSTNYADSVKGRFTISRDNAKNTVYLQMNSLKPEDTAVIYCAAEHPYFIWLYYYWGQGTQVTVSS | low polyreactivity
QVQRVESGGGLVQAGGSLRLSCAACGSILPQYTMVWYRQAPGKERELVAAISKRGDRTYYADSVKGRFTISRDNAKNTVYLQMNSLKPEDTAVYYCAALGTGTGARSRYSVRFDYWGQGTQVTVSS | high polyreactivity
QVQRVESGGGLVQAGGSLRLSCAASGLIFGGYAMGWYRQAPGKERELVAAITSGGSTKYADSVKGRFTISRDNAKNTVYLQMNSLKPEDTAVYYCAASGWRNWWSARNYYWGQGTQVTVSS | low polyreactivity
QVQRVESGGGLVQAGGSLRLSCAASGLTFRRYGMGWYRQAPGKEREWVASISSRGGNTYYADSVKGRLTISRDKAKNTVYLQMNSRKPEETAVYYCAARHVLYGYYLYDYWGQGTQVTVSS | high polyreactivity
QVQRVESGGGLVQAGGSLRLSCAASGNTFTVNAMGWYRQAPGKERELVAAINYSGGSTYYADSVKGRFTISRDNAKNTVYLQKNSLKPEDTAVYYCAASPDELLYEMYYWGQGTQVTVSS | low polyreactivity
QVQRVESGGGLVQAGGSLRLSCAASGRIFGKYAMGWYRQAPGKERELVAAIDGSGSTNYADSVKGRFTISRDNAKNTVYLLMNSLKPEDTAVYYCATDHAQKFRYRSPREYWGQGTQVTVSS | low polyreactivity
QVQRVESGGGLVQAGGSLRLSCAASGRIFQVYAMGWSRPAPGKERELVAAITWSGGSSYADSVKGRFTISRDNAKNTVFLQMNSLKPEDTAVYYCAAPFYYYGVRFDYRGQGTQVTVSS | high polyreactivity
QVQRVESGGGLVQAGGSLRLSCAASGRIFSANAMGWYRQAPGKERELVATISTGGGRTYYADSVKGRFTISRDNAKNTVYLQMNSLKPEDTAVYYCNATRNYARVRYYYWGQGTQVTVSS | high polyreactivity
QVQRVESGGGLVQAGGSLRLSCAASGRIFSLNAMGWYRQAPGKEREFVAAISTSSGTTYYADSVKGRFTISRDNAKNTVYLQMNSLKPEDTAVYYCAAKRPSRYYPYRWGFDYWGQGTQVTVSS | high polyreactivity
QVQRVESGGGLVQAGGSLRLSCAASGRTFPWNVMGWYRQAPGKERELVAAISWSSGRTYYADSVKGRFTISRDNAKNTVYLQMNSLKPEDTAVYYCAAVYKVHSGLYEYWGQGTQVTVSS | high polyreactivity
QVQRVESGGGLVQAGGSLRLSCAASGRTFWRNAMGWYRQAPGKERELVARISWSGGSTYYADSVKGRFTISRDNAKNTVYLQMNSLKPEDTAVYYCAKYYPGRSAFSDGNYWVQGTQVTVSS | low polyreactivity
QVQRVESGGGLVQAGGSLRLSCAASGRTVGYYAMGWYRQAPGKERELLAAITRTGGSTHYADSVKGRFTISRANAKNTVYIQMNSLKPEDTAVYYCARDYRYTIPYDYWGQGTQVTVSS | low polyreactivity
QVQRVESGGGLVQAGGSLRLSCAASGSIFPRYAMGWYRQAPGKEREMVATISSGGSTYYADSVKGRFTISRDNAKNTVYLQMNSLKPEHTAVYYCAARKRPYTVINGMDYWGQGTQVTVSS | low polyreactivity

Sequence | polyreactivity (PSR sort gate)
QVQRVESGGGLVQAGGSLRLSCAASGSIFSVYAMGWYRQAPGKERELVAAITSSGGSTYYADSVKGRFTISRDNAKNTVNFQMKSLKPEDTAVYYCAADKYLRRRSWYRYGYWGQGTQVTVSS | high polyreactivity
QVQRVESGGGLVQAGGSLRLSCAASGSIFYGNAMGWYRQAPGKERELVAAISWSGGSTYYADSVKGRFTISRDNAKNTVYLQMNSLKPEDTAVYYCATVADEPRAYSGYEESDYWGQGTQVTVSS | low polyreactivity
QVQRVESGGGLVQAGGSLRLSCAASGSIFYVYVMGWYRLAPGKERELVAGISYRGGSTYYADSVKGRFTISRDNAKNTVYLQMNSLKPEDTAVYYCNAGVWTYWHIEMDYWGQGTQVTVSS | low polyreactivity
QVQRVESGGGLVQAGGSLRLSCAASGSTFKKYVMGWYRPAPGKERELVAAISGRGGSTYYADSVKGRFTISRDNAKNTVYLQMNSLKPEDTAVYYCNARKQTARFDSWGQGTQVTVSS | high polyreactivity
QVQRVESGGGLVQAGGSLRLSCAASGSTFSSYAMGWYRQAPWKERELVAAISRSGGSTHYADSLKGRFTISRDNAKNTVYLQMNSLKPEDSAVYYCAADTGRYLDSNYWGQGTQVTVSS | high polyreactivity
QVQRVESGGGLVQAGGSLRLSCAASGSTFVGYAMGWYRQAPGKERELVAAINDSGGSTYYADSVKGRFTISRDNAKNTVYLQMNSLKPEDTAVYYCAADSSGTSWYTFDYWGQRTQVTVSS | low polyreactivity
QVQRVESGGGLVQAGGSLRLSCAASGYTFQWYDMGWYRQAPGKERELVASISWRGGSTYYADSVKGRFTISRDNAKNTVYFQMNSLKPEDTAVYYCAASLLPDYQYDYWGQGTQVTVSS | low polyreactivity
QVQRVESGGGLVQAGGSLRLSCAASRRIFKLYAMGWYIQAPGKERELVAAINRRGGSTSYADSVKVRFTISRDYAKNTVYLQMNSLKPEDTAVYYCAASYTGRTVVQGYEYWGQGTQVTVSS | high polyreactivity
QVQRVESGGGLVQAGGSLRLSGAASGFTFHSYAMGWFRQPPGKERELVAAISTGGTRTYYADSVKGRFTISRDNAKNTVYLQMNSLKPEDTAVYYCAADLSRRVRIYSKYDSWGQGTQVTVSS | high polyreactivity
QVQRVESGGGLVQAGGSLRLSSAGSGFTYYRNAMGWYRQAPGKERELVAAISFSGGSTYYADSVKGRFTISRDNAKNTVYLQMNSLKPEDTAVYYCAREDYSHSFLTYDYWGQGTQLTVSS | low polyreactivity
QVQRVESGGGLVQAGGSLRVSCAASGSTFYVYGMGWYRQAPGKERELVAAISWSGGDTYYADSVKGRCTISRDNAKNTVYLQMNRLKPEDTAVYYCAAVYNYPVVGEYDYWGQGTQVTVSA | high polyreactivity
QVQRVESGGGLVQAGRSLRLSCAASGTIFGPYAMGWYRQAPGKERELVAAITIGRDNTYYADSVKGRFTISRDNAKNTVYLQINSLKPEDTAVYYCAAKYYGGKPHYYEYYYWGQGTQVTVSS | low polyreactivity
QVQRVESGGGLVQAGRSLRLSCAATGITFWVYAMGWYRQAPGKERELVAAISRRGGSTSYADSVKGRFTISRDNAKNTVYLQMNSLKPEDTAVYYCAATTYTHPYGYWGQGTQVTVSS | high polyreactivity
QVQRVESGGGLVQEGGSLRLSCAASGITFAGYAMGWYRQAHGKERELVAAISTRGGSTTYADSVKGRFTISLDNAKNTVYLQMNRLKPEDTAVYYCAADSYYRRYFGWYEYWGQGTQVTVSS | high polyreactivity
QVQRVESGGGLVQSGGSLRLSCAASGRIFYLYARGWNSQAPGKERELVAAITWSGGSTTYADSVKGRFTISRDNAKNTVYLQMNSLKPEDTAVYYCNADGWSFPSFSPMDYWGQGTQVTVSS | low polyreactivity
